{"source": "paper PMC5668897", "about": "(Biochemistry and Biophysics Reports, 2015)", "proteins": {"B1": {"name": "regulatory subunit of Thermotoga maritima acetohydroxyacid synthase (TmAHAS), TM0549 (natural protein)", "chain": "MTDQIREHLVSMLVHNKPGVMRKVANLFARRGFNISSITVGESETPGLSRLVIMVKGDDKTIEQIEKQAYKLVEVVKVTPIDPLPENRVEREMALIKVRFDEDKQEIFQLVEIFRGKIIDVSREGAIIEITGARSKVEAFINLLPQKQVEEIARTGIVAMNRWNVKEGEGF"}}, "molecular_target": "the molecule itself", "assay": "SEC", "data": [{"protein": "B1", "values": [{"measurement": "stoichiometry N", "result": 2}]}]}
